According to the supplement of paper PMC9170038:

Tested on: MS2 coat protein
Experiment: apparent KD of MS2 coat protein; designed switch direction (-1 OFF switch, 1 ON switch): -1; higher = weaker reporter binding
Outline: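 An oligonucleotide input, 200 uM small-molecule ligand, or no input was present during titration of SNAP-549-labelled MS2 coat protein, which was doubled from 0.7 or 1.5 nM to 3 µM. Designed RNA switches had been transcribed on Illumina chips by stalled E. coli RNA polymerase. Apparent KD per design is the median over clusters of curves fitted to normalised cluster fluorescence.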

[1] = input ligand: microRNA oligo, concentration not stated
[2] = Eterna round: R95, input ligand: microRNA oligo, concentration not stated
[3] = Eterna round: R95, input ligand: FMN 200 uM
[4] = Eterna round: R95, input ligand: none

Row | Sequence | apparent KD of MS2 coat protein (input ligand: FMN 200 uM) [µM] | apparent KD of MS2 coat protein [1] [µM] | apparent KD of MS2 coat protein (input ligand: none) [µM] | apparent KD of MS2 coat protein [2] [µM] | apparent KD of MS2 coat protein [3] [µM] | apparent KD of MS2 coat protein [4] [µM]
1 | GGCUGACAUGUAGGAUAUCUGCACGUUUAGUGCAGAGAAGGACAUGAGGAUCACCCAUGUAUAGCGACUUCGGUCGCAACAGCC [ENG1/2-A2] (Eterna round: R96, puzzle: Exclusion NG 1) | 0.115 | 0.0316 | 0.0483 | – | – | –
2 | GGGAAACAUGAGGAUCACCCAUGUAAUGAGCAUGGAAUCCCAGAGGAUAUCGCAUGUAUGAAUGUCGAGAAGGCUGACGUUAAA [Eternabot solution 6] (Eterna round: R96, puzzle: Exclusion NG 3) | 1.03 | 0.198 | 0.207 | – | – | –
3 | GGGAAACAUGAGGAUCACCCAUGUCAGGAUAUGAUACUAUGUACUUCGGUACAUAGUAUCAGAAGGGACAUCAU [Ex1-3: 13] (puzzle: Exclusion 1) | – | – | – | 0.0792 | – | –
4 | GGGAAGAACCAACAAGCAAACAUGAGGAUCACCCAUGUUAGUGGUUCGAAUGUAAAGAUUAAGAGAGCUCGUCUUAU [AK-miRNA-r3-9] (Eterna round: R97, puzzle: Sensor, turn-off variant 1) | 0.018 | – | 0.0202 | – | – | –
5 | GGGAAGAACCAACAAGUAGACAUGAGGAUCACCCAUGUAGACUUCAUGUAGGAAAGGAAAGGAAGAGCUCGUCUUAU [AK-miRNA-r3-12] (Eterna round: R97, puzzle: Sensor, turn-off variant 1) | 0.0216 | – | 0.0285 | – | – | –
6 | GGGAUGUCAGGAUAUCCGAAUAAUAACAACAAUAACAGAAAGGAGAAGGGACAUGAGGAUCACCCAUGUAAAAG [Bemadiin] (puzzle: Exclusion 4) | – | – | – | 0.0375 | 0.0399 | 0.04
7 | GGGCCCGGAGGAUAUACAUGAGGAUCACCCAUGUAGCGCGCGCGUAUUUGUGUGUGUUGUAGAAGGCCGGGCCC [-36.6, -33.8 kcal, A 19%, 6-0] (Eterna round: R97, puzzle: Exclusion 3) | 0.0579 | – | 0.0179 | – | – | –
8 | GGGCCCGGUGUGAGGAUAUCGGGCCCGAAAGGGUUUGAGAAGGCACAUGAGGAUCACCCAUGUAAGCCGGGCCC [-41.1, -39 kcal, A 23%, 5b-0] (Eterna round: R97, puzzle: Brourd's mod of Exclusion 4) | 0.0171 | – | 0.0153 | – | – | –
9 | GGGCCCGGUGUGAGGAUAUCGGGCUCGAAAGGGCUCGAGAAGGCACAUGAGGAUCACCCAUGUAAGCCGGGCCC [-42.6, -40.5 kcal, A 23%, 4-0] (Eterna round: R97, puzzle: Brourd's mod of Exclusion 4) | 0.0152 | – | 0.0186 | – | – | –
10 | GGGCGUAGGCAGGAUAUGUAAGGCUGUUGGUCUAUAGAAGGGUUUACAUGAGGAUCACCCAUGUGACCGAACCG [Eternabot (L2) Solution 16] (Eterna round: R97, puzzle: Exclusion 6) | 0.0182 | – | 0.0164 | – | – | –
11 | GGGCUCGGUGUGAGGAUAUCGGGCCCGAAAGGGCCCGAGAAGGCACAUGAGGAUCACCCAUGUAAGUCGGGCUC [-38.1, -37 kcal, A 23%, 0-4] (Eterna round: R97, puzzle: Brourd's mod of Exclusion 4) | 0.0136 | – | 0.0141 | – | – | –
12 | GGGUAGUUAGGAUAUCAGACUAGCUGCUCAACAGCAGCAGCUGAGAAGGGACUUGAGGAUCACCCAAGUGGAAG [Ceisis] (Eterna round: R97, puzzle: Exclusion 4) | 0.0649 | – | 0.0701 | – | – | –
13 | GGGUGCAGGCUGAGGUCCUACAUGAGGAUCACCCAUGUGGUCCGGUGACGUGAGUCACCGGACUUGGCUCGUCUUGU [salish99_S_TOV1_R5_010] (Eterna round: R97, puzzle: Sensor, turn-off variant 1) | 0.0415 | – | 0.0505 | – | – | –
14 | GGGUUGGUAGGAUAUACAUGAGGAUCACCCAUGUCAUGUCGUCGGGAAAGAUCUUUCCGUAGAAGGGCCACCCG [Eternabot (L2) Solution 52] (Eterna round: R97, puzzle: Exclusion 3) | 0.097 | – | 0.028 | – | – | –
15 | GGGUUUCCGCAGGAUAUACGAUGGCGCAAUGUAGUAGAAGGGCGGACAUGAGGAUCACCCAUGUUCGUUCCUCG [EX6 C.25] (Eterna round: R97, puzzle: Exclusion 6) | 0.0264 | – | 0.0146 | – | – | –
16 | GGGUUUGGAGGAUAUACAUGAGGAUCACCCAUGUACCCGGGCCCUAUUGGGUUUGGGUGUAGAAGGCCGGGCCC [-33.9, -31.3 kcal, A 19%, 5bbis,5b] (Eterna round: R97, puzzle: Exclusion 3) | 0.0204 | – | 0.0177 | – | – | –
17 | GGUAAGCUAGGAUAUGCUUUGGGAAAGCAUUCCUUCGAUAAACUUGAGGAUCACCCAAGUAGAAGGAGCUUACC [salish99_ex2_r4_016] (Eterna round: R97, puzzle: Exclusion 2) | 0.0198 | – | 0.0118 | – | – | –

Row | Sequence | apparent KD of MS2 coat protein (input ligand: FMN 200 uM) [µM] | apparent KD of MS2 coat protein [1] [µM] | apparent KD of MS2 coat protein (input ligand: none) [µM] | apparent KD of MS2 coat protein [2] [µM] | apparent KD of MS2 coat protein [3] [µM] | apparent KD of MS2 coat protein [4] [µM]
18 | GGUAAGCUAGGAUAUGCUUUGGGAAAGCAUUCCUUCGAUAAACUUGAGGAUCACCCAAGUAGAAGGAGCUUACG [salish99_ex2_r4_015] (Eterna round: R97, puzzle: Exclusion 2) | 0.0167 | – | 0.0128 | – | – | –
19 | GGUACUAACACGAAAGUGUUAGUACAAUAAGCUUGUGAAACAUGAGGAUCACCCAUGUCCUCAUAAGCUCGUCUUAA [salish99_TOv2_r3_004] (puzzle: Sensor v3, turn-off variant 2) | – | – | – | 0.238 | 0.0144 | 0.0133
20 | GGUACUAACACGAAAGUGUUAGUACAAUAAGCUUGUGUUACAUGAGGAUCACCCAUGUCCUCAUAAGCUCGUCUUAU [Mat - Sensor v3 - Turn-off var 2 - D52] (puzzle: Sensor v3, turn-off variant 2) | – | – | – | 0.0388 | 0.112 | 0.126
21 | GGUAGAGUGGUAGGAUAUCCGACUGUUUCAGACGGAGAAGGACCACAGUCACUGGGUCCAAAUAUCAUGGAGACCUGAUCUACC [pwkr exNG1 F6.8] (Eterna round: R96, puzzle: Exclusion NG 1) | 0.983 | 0.556 | 0.634 | – | – | –
22 | GGUAUACAUGAGGAUCACCCAUGUCAGGAUAUGGAAACCUGUGCCGAAAGGCACAGGGCCAGAAGGGACGAUAG [AK-MS2ROC-r4-exclusion1-5.3] (Eterna round: R97, puzzle: Exclusion 1) | 0.0937 | – | 0.0829 | – | – | –
23 | GGUCAGACGGUAGGAUAUCCAUAUCGAGUGACCUUUUCAUAACAUGAGGAUCACCCAUGUCGGUGGGAGAAGGGCCGUACGGCG [salish99_ExNG02_R04_004] (Eterna round: R96, puzzle: Exclusion NG 2) | 0.114 | 0.0782 | 0.0932 | – | – | –
24 | GGUCAGACGGUAGGAUAUCCAUAUUGAGUGACCCUUUCAUAACAUGAGGAUCACCCAUGUCGGUGGGAGAAGGGCCGUACGGCG [salish99_ExNG02_R04_006] (Eterna round: R96, puzzle: Exclusion NG 2) | 0.205 | 0.214 | 0.411 | – | – | –
25 | GGUCCACAUGAGGAUCACCCAUGUGAGGAUAUGCAGCGGGAGCCGCCGCCGAACCGAUGUAGAAGGCACACCUG [Eternabot (Original) Solution 19] (Eterna round: R97, puzzle: Exclusion 1) | 0.019 | – | 0.0204 | – | – | –
26 | GGUCCACAUGAGGAUCACCCAUGUUAGGAUAUCUCGCCCGAGUCGUUAUGGGCCAGGCAGAGAAGGAAUGUGAA [Cebeisve] (puzzle: Exclusion 1) | – | – | – | 0.018 | – | –
27 | GGUCCCAGGCAGGAUAUGCAAGCCACACAUGGCGCAGAAGGGCUCACAUGAGGAUCACCCAUGUAUUUCGUUUU [Eternabot (L1) Solution 19] (Eterna round: R97, puzzle: Exclusion 6) | 0.086 | – | 0.0423 | – | – | –
28 | GGUCGACAUGAGGAUCACCCAUGUCAGGAUAUCGUCACUGGAGCCUCGGCUCCAGUGACGAGAAGGGACAUAAU [E1/14-A2] (Eterna round: R97, puzzle: Exclusion 1) | 0.0234 | – | 0.0314 | – | – | –
29 | GGUCGCUUUGUCAGGAUAUCAGGUUAGAUCUGAUUUGAGAAGGGACAUGAGGAUCACCCAUGUGGCGACCUAAA [Eternabot (L1) Solution 42] (Eterna round: R97, puzzle: Brourd's mod of Exclusion 4) | 0.0264 | – | 0.0317 | – | – | –
30 | GGUCGGCGAGGAUAUACAUGAGGAUCACCCAUGUGAGAUAGUGCACGCGUACGUGUACGUAGAAGGCGCUGACG [JL-ex3-3.25 salish99 mod] (puzzle: Exclusion 3) | – | – | – | 0.0124 | 0.0261 | 0.0083
31 | GGUCUUCAAGUCAGGAUAUCGUCUAAUCGGUCUGGCGAGAAGGGACAUGAGGAUCACCCAUGUCGUCUCAUCAG [Ex4 #15] (Eterna round: R97, puzzle: Brourd's mod of Exclusion 4) | 0.0271 | – | 0.0204 | – | – | –
32 | GGUGAAGCAGGAUAUGUAUCGAUAUACAUGAGGAUCACCCAUGUCAUGUUUGAAUUGCAUAUAGAAGGGCUUCACC [Exclusion 5 (FMN-MS2 slide v.3)] (Eterna round: R97, puzzle: Exclusion 5) | 0.0164 | – | 0.0138 | – | – | –
33 | GGUGAGAGCAAGGAUAUGCAGAAGAGAGAAAGAGCAGAAGGUGCUACAUGAGGAUCACCCAUGUAGGAUGUGUU [JR_E6_Sub013] (puzzle: Exclusion 6) | – | – | – | 0.0134 | 0.0152 | 0.0134
